In assay [1] the target is T1, Human LSD2 (residues 51-822) (human, UniProt Q8NB78 51-822).
T1 construct: range 51-822; Expressed in Sf9 cells with a His6 tag removed by 3C protease; used for ITC; also called KDM1b; AOF1
T1 sequence (looked up): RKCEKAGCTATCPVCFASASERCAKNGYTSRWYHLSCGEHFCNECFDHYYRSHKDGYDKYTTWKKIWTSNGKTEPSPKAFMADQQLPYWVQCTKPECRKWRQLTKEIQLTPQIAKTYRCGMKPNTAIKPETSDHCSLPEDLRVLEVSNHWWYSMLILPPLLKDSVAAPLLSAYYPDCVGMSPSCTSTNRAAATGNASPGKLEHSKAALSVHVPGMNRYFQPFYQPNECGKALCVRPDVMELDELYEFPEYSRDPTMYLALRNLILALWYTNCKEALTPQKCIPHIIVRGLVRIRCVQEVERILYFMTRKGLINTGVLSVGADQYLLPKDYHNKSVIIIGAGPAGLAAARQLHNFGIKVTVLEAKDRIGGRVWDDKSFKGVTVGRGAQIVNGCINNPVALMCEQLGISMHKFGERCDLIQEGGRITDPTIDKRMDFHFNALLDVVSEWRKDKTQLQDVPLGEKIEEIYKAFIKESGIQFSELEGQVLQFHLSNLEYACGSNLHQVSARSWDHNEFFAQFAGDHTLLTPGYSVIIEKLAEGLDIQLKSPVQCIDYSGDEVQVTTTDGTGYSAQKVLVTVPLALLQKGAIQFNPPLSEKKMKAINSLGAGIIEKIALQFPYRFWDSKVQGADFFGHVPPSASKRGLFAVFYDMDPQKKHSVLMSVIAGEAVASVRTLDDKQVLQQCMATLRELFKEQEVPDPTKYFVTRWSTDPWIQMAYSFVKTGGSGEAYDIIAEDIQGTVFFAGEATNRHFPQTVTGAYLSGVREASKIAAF
In words: ITC, 15 °C; 3 mM peptide injected into 0.2 mM LSD2 (residues 51-822). As to the method: Isothermal Titration Calorimetry (ITC) binding study. […] All proteins and peptides were prepared in 10 mM HEPES, pH 8.0, and 0.1 M NaCl. The data were fitted by software Origin 7.0.

Assay [2] addresses Endogenous LSD1 (HeLa cells) (human, UniProt O60341 1-852). In words: tandem affinity purification, immunoblot with anti-LSD1. A general note: In western blotting, separated proteins are transferred to a membrane and probed.
Assay [3] has as its target T2, Endogenous LSD2 (human cells) (human, UniProt Q8NB78 1-822, limits assumed).
T2 construct: also called KDM1b; AOF1
T2 sequence (looked up): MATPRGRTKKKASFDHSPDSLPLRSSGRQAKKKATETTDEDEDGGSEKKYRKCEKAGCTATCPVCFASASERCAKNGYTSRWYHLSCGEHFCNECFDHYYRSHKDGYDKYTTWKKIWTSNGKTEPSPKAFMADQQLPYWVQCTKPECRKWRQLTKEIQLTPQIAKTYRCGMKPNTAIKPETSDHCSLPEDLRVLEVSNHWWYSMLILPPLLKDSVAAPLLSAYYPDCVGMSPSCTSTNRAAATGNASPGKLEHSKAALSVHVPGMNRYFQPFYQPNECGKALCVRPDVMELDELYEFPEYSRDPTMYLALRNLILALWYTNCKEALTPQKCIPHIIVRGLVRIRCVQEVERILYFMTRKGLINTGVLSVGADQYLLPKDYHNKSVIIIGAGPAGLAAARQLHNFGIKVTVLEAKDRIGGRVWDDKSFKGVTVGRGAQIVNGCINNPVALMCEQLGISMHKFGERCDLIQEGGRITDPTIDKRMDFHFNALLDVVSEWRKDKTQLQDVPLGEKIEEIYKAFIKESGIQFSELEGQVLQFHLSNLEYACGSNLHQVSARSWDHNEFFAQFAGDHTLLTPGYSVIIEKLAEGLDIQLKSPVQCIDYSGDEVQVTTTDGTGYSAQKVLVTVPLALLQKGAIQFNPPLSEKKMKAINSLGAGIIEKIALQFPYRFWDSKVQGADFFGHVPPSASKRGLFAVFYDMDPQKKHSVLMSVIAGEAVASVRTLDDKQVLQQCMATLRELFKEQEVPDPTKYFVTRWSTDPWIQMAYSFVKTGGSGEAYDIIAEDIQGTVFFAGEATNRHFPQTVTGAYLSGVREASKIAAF
Nature of the assay: tandem affinity purification from HeLa, immunoblot with anti-LSD2.

The target in assay [4] is FLAG-HA tagged LSD1 bait protein (stably expressed in HeLa, tandem affinity purified) (human, UniProt O60341 1-852). Nature of the assay: tandem affinity purification, immunoblot with anti-NPAC.
Assay [5] addresses T3, Recombinant 6x his tagged full-length LSD2 (human, UniProt Q8NB78 1-822).
T3 construct: range 1-822; Expressed in and purified from Sf9 insect cells; also called His-LSD2; full-length His-LSD2
T3 sequence: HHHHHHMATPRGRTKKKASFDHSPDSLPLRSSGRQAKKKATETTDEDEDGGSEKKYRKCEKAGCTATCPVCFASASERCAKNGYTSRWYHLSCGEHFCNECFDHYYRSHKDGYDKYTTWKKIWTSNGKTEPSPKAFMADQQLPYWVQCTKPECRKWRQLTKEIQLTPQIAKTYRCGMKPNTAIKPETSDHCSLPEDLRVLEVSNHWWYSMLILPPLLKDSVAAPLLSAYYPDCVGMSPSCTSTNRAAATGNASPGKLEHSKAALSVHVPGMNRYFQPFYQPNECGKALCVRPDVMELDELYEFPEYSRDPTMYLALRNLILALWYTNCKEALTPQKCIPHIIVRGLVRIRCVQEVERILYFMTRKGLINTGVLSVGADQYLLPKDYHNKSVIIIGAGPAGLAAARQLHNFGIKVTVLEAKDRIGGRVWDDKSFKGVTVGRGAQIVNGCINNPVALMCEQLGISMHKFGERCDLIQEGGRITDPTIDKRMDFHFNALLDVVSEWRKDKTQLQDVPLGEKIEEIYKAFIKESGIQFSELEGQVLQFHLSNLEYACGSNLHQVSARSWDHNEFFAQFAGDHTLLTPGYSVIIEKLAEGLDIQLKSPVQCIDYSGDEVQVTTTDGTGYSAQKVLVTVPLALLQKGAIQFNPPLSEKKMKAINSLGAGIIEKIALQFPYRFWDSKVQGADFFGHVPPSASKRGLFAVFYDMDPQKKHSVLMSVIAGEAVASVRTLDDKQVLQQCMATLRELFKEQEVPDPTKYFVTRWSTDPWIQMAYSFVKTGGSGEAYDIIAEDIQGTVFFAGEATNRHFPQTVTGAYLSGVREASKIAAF
In words: GST pulldown of purified His-LSD2, SDS-PAGE, Coomassie. As for the experimental part:
DH, dehydrogenase domain; black box, AT-hook motif. FIG. 2A discloses “PWWP” as SEQ ID NO: 63. […] Molecular masses corresponding to mono- and di-methylated H3K4 peptides (residues 1-21) are denoted as me1 and me2, respectively.
(§1) After washed 4 times with same buffer at 4° C., glutathione agarose beads were boiled in 1× SDS sample loading buffer. Elute was resolved on a 15% SDS-PAGE gel and stained by coomassie blue.

Assay [6] has as its target T3, Recombinant 6x his tagged full-length …. Nature of the assay: GST pulldown of His-LSD2, SDS-PAGE, Coomassie. As to the method:
FIG. 5B discloses SEQ ID NO: 51. […] FIG. 5D discloses SEQ ID NOS 63 and 76, respectively, in order of appearance. […] See also FIG. 6G.
as §1

Ends that are not written are not given here.

Usually Kd stands for the free concentration of one partner at which half of the binding sites on the other are occupied at equilibrium, for simple one-to-one binding.

As to DPHFHHFLLSQT (also called wild-type NPAC peptide) [NPAC.214-225.WT (wild-type NPAC dodecapeptide, residues 214-225)], in assay [1], the Binding ratio turned out to be 1.06, the Kd was found to be 920 nM, the “Δ H” value is -8.48 kcal/mol and the “Δ S” value is -1.82 cal/mol/deg.

B1: NPAC.214-225.M6 (F217A) (peptide)
peptide: DPHAHHFLLSQT
notes: Synthetic dodecapeptide; also called NP.M6
As to B1, in assay [1], the Binding ratio was determined as 1.1, binding was characterised by a dissociation constant (Kd) of 930 nM, the “Δ H” value is -8.18 kcal/mol and the “Δ S” value is -0.783 cal/mol/deg.

B2: FLAG-HA tagged NPAC (N-terminal FLAG-HA, stably expressed in HeLa, tandem affinity purified) (other)
chain: MAAVSLRLGDLVWGKLGRYPPWPGKIVNPPKDLKKPRGKKCFFVKFFGTEDHAWIKVEQLKPYHAHKEEMIKINKGKRFQQAVDAVEEFLRRAKGKDQTSSHNSSDDKNRRNSSEERSRPNSGDEKRKLSLSEGKVKKNMGEGKKRVSSGSSERGSKSPLKRAQEQSPRKRGRPPKDEKDLTIPESSTVKGMMAGPMAAFKWQPTASEPVKDADPHFHHFLLSQTEKPAVCYQAITKKLKICEEETGSTSIQAADSTAVNGSITPTDKKIGFLGLGLMGSGIVSNLLKMGHTVTVWNRTAEKCDLFIQEGARLGRTPAEVVSTCDITFACVSDPKAAKDLVLGPSGVLQGIRPGKCYVDMSTVDADTVTELAQVIVSRGGRFLEAPVSGNQQLSNDGMLVILAAGDRGLYEDCSSCFQAMGKTSFFLGEVGNAAKMMLIVNMVQGSFMATIAEGLTLAHVTGQSQQTLLDILNQGQLASIFLDQKCQNILQGNFKPDFYLKYIQKDLRLAIALGDAVNHPTPMAAAANEVYKRAKALDQSDNDMSAVYRAYIH
notes: Bait of the purified NPAC complex; also called FLAG:HA-NPAC; NPAC complex; not shown: N-terminal FLAG-HA tag from pOZ-N vector
For the molecule B2, the binding result is “no binding” in assay [2] and “binds” in assay [3].

B3: Endogenous NPAC (human cells) (other)
chain: B2 chain
notes: Endogenous protein of HeLa cells, detected by immunoblot in purified complexes; also called GLYR1; NP60
With B3, in assay [4], the binding result is recorded as “no binding”.

B4: GST-NP.d1 (NPAC residues 1-150, PWWP domain) (other)
chain: MAAVSLRLGDLVWGKLGRYPPWPGKIVNPPKDLKKPRGKKCFFVKFFGTEDHAWIKVEQLKPYHAHKEEMIKINKGKRFQQAVDAVEEFLRRAKGKDQTSSHNSSDDKNRRNSSEERSRPNSGDEKRKLSLSEGKVKKNMGEGKKRVSSG
notes: not shown: glutathione S-transferase (GST) tag from vector pGEX-4T-1
Consider B4, for which, in assay [5], the binding result is listed as “no binding”.

B5: GST-NP.d6 (NPAC with deletion of the linker region, residues 152-252) (other, not shown: a dimerising Fc or GST; small tags and cut ends)
chain: MAAVSLRLGDLVWGKLGRYPPWPGKIVNPPKDLKKPRGKKCFFVKFFGTEDHAWIKVEQLKPYHAHKEEMIKINKGKRFQQAVDAVEEFLRRAKGKDQTSSHNSSDDKNRRNSSEERSRPNSGDEKRKLSLSEGKVKKNMGEGKKRVSSGSAADSTAVNGSITPTDKKIGFLGLGLMGSGIVSNLLKMGHTVTVWNRTAEKCDLFIQEGARLGRTPAEVVSTCDITFACVSDPKAAKDLVLGPSGVLQGIRPGKCYVDMSTVDADTVTELAQVIVSRGGRFLEAPVSGNQQLSNDGMLVILAAGDRGLYEDCSSCFQAMGKTSFFLGEVGNAAKMMLIVNMVQGSFMATIAEGLTLAHVTGQSQQTLLDILNQGQLASIFLDQKCQNILQGNFKPDFYLKYIQKDLRLAIALGDAVNHPTPMAAAANEVYKRAKALDQSDNDMSAVYRAYIH
notes: The flanking ranges are derived from that
Take B5: the binding result in assay [5] is on record as “no binding”.

B6: GST-NP.d5 (NPAC residues 262-553, dehydrogenase domain) (other)
chain: SITPTDKKIGFLGLGLMGSGIVSNLLKMGHTVTVWNRTAEKCDLFIQEGARLGRTPAEVVSTCDITFACVSDPKAAKDLVLGPSGVLQGIRPGKCYVDMSTVDADTVTELAQVIVSRGGRFLEAPVSGNQQLSNDGMLVILAAGDRGLYEDCSSCFQAMGKTSFFLGEVGNAAKMMLIVNMVQGSFMATIAEGLTLAHVTGQSQQTLLDILNQGQLASIFLDQKCQNILQGNFKPDFYLKYIQKDLRLAIALGDAVNHPTPMAAAANEVYKRAKALDQSDNDMSAVYRAYIH
notes: as for B4
Turning to B6, the binding result in assay [5] is “no binding”.

B7: NPAC.214-225.M8 (D214A/H216A/F217A) (peptide)
peptide: APAAHHFLLSQT
notes: Synthetic dodecapeptide; also called D214A/H216A/F217A triple mutant peptide
In the case of B7, in assay [1], the “Δ H” value was -8.29 kcal/mol and the “Δ S” value was -1.3 cal/mol/deg.

B8: GST-NP.d9 (NP.d3, NPAC residues 152-252, with deletion of amino acids 214-222) (other, not shown: a dimerising Fc or GST; small tags and cut ends)
chain: SERGSKSPLKRAQEQSPRKRGRPPKDEKDLTIPESSTVKGMMAGPMAAFKWQPTASEPVKDASQTEKPAVCYQAITKKLKICEEETGSTSIQ
notes: as for B5
As for B8, the binding result in assay [6] is recorded as “no binding”.

B9: GST-NP.d7 (NPAC residues 152-186, containing the AT hook motif) (other)
chain: SERGSKSPLKRAQEQSPRKRGRPPKDEKDLTIPES
modifications: also: GST tag fusion, tag and linker sequence not given here
notes: as for B4
For B9, in assay [6], the binding result is on record as “no binding”.

Source of the values: patent US20150329644A1 (BRIGHAM AND WOMEN S HOSPITAL, published 2015).
